In the Human Domainome abundance scans (Beltran et al. 2025) one finds abundance fitness data, which are given here for 91 substances.

± gives the uncertainty stated by the source.

A short description of the data set: abundance fitness (aPCA) (normalised: wild type 0, dead -1); higher = more abundant; growth selection in yeast, the domain comes from the species named. The settings on record: Saccharomyces cerevisiae (strain ATCC 204508 / S288c).
Regarding “E3 ubiquitin-protein ligase RSP5 H352A, P39940”, the abundance fitness was -0.236 ± 0.045. With “E3 ubiquitin-protein ligase RSP5 H352C, P39940” the figure was -0.384 ± 0.067; with “E3 ubiquitin-protein ligase RSP5 H352D, P39940”, -0.325 ± 0.099; with “E3 ubiquitin-protein ligase RSP5 H352E, P39940”, -0.296 ± 0.056. Take “E3 ubiquitin-protein ligase RSP5 H352G, P39940”: the abundance fitness is -0.229 ± 0.04. Take “E3 ubiquitin-protein ligase RSP5 H352I, P39940”: the abundance fitness was -0.046 ± 0.16. With “E3 ubiquitin-protein ligase RSP5 H352K, P39940” the figure was -0.176 ± 0.074. As for “E3 ubiquitin-protein ligase RSP5 H352L, P39940”, the abundance fitness is -0.235 ± 0.057.

“E3 ubiquitin-protein ligase RSP5 H352M, P39940” registered an abundance fitness of -0.104 ± 0.053.

“E3 ubiquitin-protein ligase RSP5 H352N, P39940” displayed an abundance fitness of 0.049 ± 0.085. Turning to “E3 ubiquitin-protein ligase RSP5 H352P, P39940”, the abundance fitness was -0.636 ± 0.05.

In the case of “E3 ubiquitin-protein ligase RSP5 H352Q, P39940”, the abundance fitness was -0.19 ± 0.086. “E3 ubiquitin-protein ligase RSP5 H352R, P39940” had an abundance fitness of -0.253 ± 0.046. Turning to “E3 ubiquitin-protein ligase RSP5 H352S, P39940”, the abundance fitness is -0.297 ± 0.051.

Substance “E3 ubiquitin-protein ligase RSP5 H352T, P39940” showed an abundance fitness of -0.197 ± 0.055. The value for “E3 ubiquitin-protein ligase RSP5 H352V, P39940” was -0.361 ± 0.056; that for “E3 ubiquitin-protein ligase RSP5 H352W, P39940” was -0.223 ± 0.049. In turn, “E3 ubiquitin-protein ligase RSP5 H352Y, P39940” displayed an abundance fitness of -0.176 ± 0.12. In turn, “E3 ubiquitin-protein ligase RSP5 L330A, P39940” displayed an abundance fitness of 0.005 ± 0.046. The substance “E3 ubiquitin-protein ligase RSP5 L330C, P39940” showed an abundance fitness of 0.05 ± 0.062.

In turn, “E3 ubiquitin-protein ligase RSP5 L330D, P39940” showed an abundance fitness of 0.02 ± 0.065.

“E3 ubiquitin-protein ligase RSP5 L330E, P39940” gave an abundance fitness of 0.013 ± 0.063.

As to “E3 ubiquitin-protein ligase RSP5 L330F, P39940”, the abundance fitness is -0.014 ± 0.071.

The substance “E3 ubiquitin-protein ligase RSP5 L330G, P39940” returned an abundance fitness of -0.087 ± 0.043. With “E3 ubiquitin-protein ligase RSP5 L330H, P39940”, the abundance fitness is -0.048 ± 0.067. “E3 ubiquitin-protein ligase RSP5 L330I, P39940” had an abundance fitness of 0.007 ± 0.062. “E3 ubiquitin-protein ligase RSP5 L330K, P39940”: the abundance fitness is -0.023 ± 0.056. The value for “E3 ubiquitin-protein ligase RSP5 L330M, P39940” was 0.089 ± 0.073; that for “E3 ubiquitin-protein ligase RSP5 L330N, P39940” was 0.054 ± 0.08; that for “E3 ubiquitin-protein ligase RSP5 L330P, P39940” was -0.058 ± 0.069. In turn, “E3 ubiquitin-protein ligase RSP5 L330Q, P39940” returned an abundance fitness of -0.024 ± 0.053.

As to “E3 ubiquitin-protein ligase RSP5 L330R, P39940”, the abundance fitness is -0.088 ± 0.045. “E3 ubiquitin-protein ligase RSP5 L330S, P39940” registered an abundance fitness of -0.055 ± 0.05. Substance “E3 ubiquitin-protein ligase RSP5 L330T, P39940” came in with an abundance fitness of -0.044 ± 0.062.

With “E3 ubiquitin-protein ligase RSP5 L330V, P39940”, the abundance fitness is -0.019 ± 0.041. Consider “E3 ubiquitin-protein ligase RSP5 L330W, P39940”, for which the abundance fitness is -0.161 ± 0.054. Take “E3 ubiquitin-protein ligase RSP5 L330Y, P39940”: the abundance fitness is -0.003 ± 0.08. Substance “E3 ubiquitin-protein ligase RSP5 L333A, P39940” returned an abundance fitness of -0.648 ± 0.05. Substance “E3 ubiquitin-protein ligase RSP5 L333C, P39940” gave an abundance fitness of -0.428 ± 0.06. For “E3 ubiquitin-protein ligase RSP5 L333D, P39940”, the abundance fitness was -0.472 ± 0.14. For “E3 ubiquitin-protein ligase RSP5 L333E, P39940”, the abundance fitness is -0.64 ± 0.075. With “E3 ubiquitin-protein ligase RSP5 L333F, P39940” the figure was -0.034 ± 0.054; with “E3 ubiquitin-protein ligase RSP5 L333G, P39940”, -0.708 ± 0.043.

The substance “E3 ubiquitin-protein ligase RSP5 L333H, P39940” gave an abundance fitness of -0.451 ± 0.07. In turn, “E3 ubiquitin-protein ligase RSP5 L333I, P39940” returned an abundance fitness of -0.227 ± 0.067. The value for “E3 ubiquitin-protein ligase RSP5 L333K, P39940” was -0.6 ± 0.09; that for “E3 ubiquitin-protein ligase RSP5 L333M, P39940” was -0.037 ± 0.097. Take “E3 ubiquitin-protein ligase RSP5 L333N, P39940”: the abundance fitness was -0.627 ± 0.1. Consider “E3 ubiquitin-protein ligase RSP5 L333P, P39940”, for which the abundance fitness was -0.63 ± 0.054.

On to “E3 ubiquitin-protein ligase RSP5 L333S, P39940”, for which the abundance fitness is -0.654 ± 0.053. With “E3 ubiquitin-protein ligase RSP5 L333T, P39940”, the abundance fitness is -0.572 ± 0.054.

For “E3 ubiquitin-protein ligase RSP5 L333V, P39940”, the abundance fitness is -0.447 ± 0.05. Regarding “E3 ubiquitin-protein ligase RSP5 L333W, P39940”, the abundance fitness is -0.331 ± 0.052. As to “E3 ubiquitin-protein ligase RSP5 N353D, P39940”, the abundance fitness was -0.147 ± 0.15. In turn, “E3 ubiquitin-protein ligase RSP5 N353E, P39940” displayed an abundance fitness of -0.149 ± 0.06.

For “E3 ubiquitin-protein ligase RSP5 N353F, P39940”, the abundance fitness is -0.323 ± 0.11.

“E3 ubiquitin-protein ligase RSP5 N353G, P39940” had an abundance fitness of -0.132 ± 0.043.

Substance “E3 ubiquitin-protein ligase RSP5 N353H, P39940” showed an abundance fitness of -0.563 ± 0.14. “E3 ubiquitin-protein ligase RSP5 N353I, P39940” came in with an abundance fitness of -0.083 ± 0.078. The value for “E3 ubiquitin-protein ligase RSP5 N353K, P39940” was -0.141 ± 0.08; that for “E3 ubiquitin-protein ligase RSP5 N353L, P39940” was -0.278 ± 0.044. The value for “E3 ubiquitin-protein ligase RSP5 N353M, P39940” was -0.132 ± 0.062; that for “E3 ubiquitin-protein ligase RSP5 N353P, P39940” was -0.673 ± 0.065; that for “E3 ubiquitin-protein ligase RSP5 N353Q, P39940” was -0.212 ± 0.052.

For the substance “E3 ubiquitin-protein ligase RSP5 N353R, P39940”, the abundance fitness is -0.177 ± 0.04. The substance “E3 ubiquitin-protein ligase RSP5 N353S, P39940” yielded an abundance fitness of -0.109 ± 0.061. Regarding “E3 ubiquitin-protein ligase RSP5 N353T, P39940”, the abundance fitness is -0.113 ± 0.059. With “E3 ubiquitin-protein ligase RSP5 N353V, P39940” the figure was -0.217 ± 0.044; with “E3 ubiquitin-protein ligase RSP5 N353W, P39940”, -0.44 ± 0.061; with “E3 ubiquitin-protein ligase RSP5 P334A, P39940”, -0.61 ± 0.07. In the case of “E3 ubiquitin-protein ligase RSP5 P334C, P39940”, the abundance fitness is -0.746 ± 0.072.

For the substance “E3 ubiquitin-protein ligase RSP5 P334D, P39940”, the abundance fitness is -0.592 ± 0.091. In the case of “E3 ubiquitin-protein ligase RSP5 P334E, P39940”, the abundance fitness is -0.689 ± 0.056. On to “E3 ubiquitin-protein ligase RSP5 P334F, P39940”, for which the abundance fitness was -0.889 ± 0.083. The substance “E3 ubiquitin-protein ligase RSP5 P334G, P39940” displayed an abundance fitness of -0.629 ± 0.044. Take “E3 ubiquitin-protein ligase RSP5 P334H, P39940”: the abundance fitness is -0.658 ± 0.078. Turning to “E3 ubiquitin-protein ligase RSP5 P334K, P39940”, the abundance fitness was -0.86 ± 0.071.

In turn, “E3 ubiquitin-protein ligase RSP5 P334L, P39940” displayed an abundance fitness of -0.837 ± 0.072. Turning to “E3 ubiquitin-protein ligase RSP5 P334M, P39940”, the abundance fitness was -0.702 ± 0.059. The substance “E3 ubiquitin-protein ligase RSP5 P334Q, P39940” had an abundance fitness of -0.68 ± 0.056.

Turning to “E3 ubiquitin-protein ligase RSP5 P334R, P39940”, the abundance fitness is -1.03 ± 0.05. Consider “E3 ubiquitin-protein ligase RSP5 P334S, P39940”, for which the abundance fitness was -0.582 ± 0.053. In turn, “E3 ubiquitin-protein ligase RSP5 P334T, P39940” gave an abundance fitness of -0.857 ± 0.069.

Regarding “E3 ubiquitin-protein ligase RSP5 P334V, P39940”, the abundance fitness was -0.966 ± 0.05. For “E3 ubiquitin-protein ligase RSP5 P334W, P39940”, the abundance fitness is -1.01 ± 0.071. In turn, “E3 ubiquitin-protein ligase RSP5 P334Y, P39940” yielded an abundance fitness of -0.627 ± 0.14.

As to “E3 ubiquitin-protein ligase RSP5 P343A, P39940”, the abundance fitness was found to be 0.013 ± 0.044. As for “E3 ubiquitin-protein ligase RSP5 P343C, P39940”, the abundance fitness is -0.147 ± 0.16. For the substance “E3 ubiquitin-protein ligase RSP5 P343D, P39940”, the abundance fitness was determined as 0.099 ± 0.064.

In the case of “E3 ubiquitin-protein ligase RSP5 P343E, P39940”, the abundance fitness is -0.019 ± 0.043.

In turn, “E3 ubiquitin-protein ligase RSP5 P343F, P39940” showed an abundance fitness of -0.417 ± 0.49.
